Data: US20230133775A1 (University of California, published 2023)

Biological target: T1, Leucine-rich repeat-containing protein 15 (LRRC15) on LRRC15-expressing cells (UniProt Q8TF66 22-581, limits assumed)
T1 construct: whole, on cells; also called leucine-rich repeat containing 15
T1 sequence (looked up): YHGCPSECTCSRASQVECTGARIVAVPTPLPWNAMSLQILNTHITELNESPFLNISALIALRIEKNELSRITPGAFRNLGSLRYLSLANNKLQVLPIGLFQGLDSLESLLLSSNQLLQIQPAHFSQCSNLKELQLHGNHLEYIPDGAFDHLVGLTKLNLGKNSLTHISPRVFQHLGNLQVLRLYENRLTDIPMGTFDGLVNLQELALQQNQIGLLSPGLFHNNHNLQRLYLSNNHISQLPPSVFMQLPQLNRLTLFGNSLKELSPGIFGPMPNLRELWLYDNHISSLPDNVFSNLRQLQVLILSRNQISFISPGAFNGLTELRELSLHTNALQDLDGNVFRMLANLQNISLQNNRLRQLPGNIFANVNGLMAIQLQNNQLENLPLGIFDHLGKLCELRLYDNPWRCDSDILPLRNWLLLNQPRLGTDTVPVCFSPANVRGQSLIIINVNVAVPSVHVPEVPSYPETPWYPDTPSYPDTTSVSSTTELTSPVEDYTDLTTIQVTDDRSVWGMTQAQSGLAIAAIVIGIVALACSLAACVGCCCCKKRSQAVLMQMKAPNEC
Test: LigandTracer, radiolabeled antibody on live target cells
Procedure: DUNP 19 was developed by humanization of a hybridoma mAb generated from immunizing mice with stably transfected LRRC15-expressing 3T3 cells. […] Liquid chromatography-mass spectrometry (LC-MS) analysis of DUNP19 incubated with LRRC15-expressing cell lines confirmed molecular binding specificity. […] LigandTracer (Ridgeview Instruments) was utilized to assess binding interaction between live cells and Lutetium-177 labeled DUNP19 ([¹⁷⁷Lu]DUNP19). […] Internalization rate was studied by quantifying emitted fluorescence over time from SAOS2 cells incubated with pH-responsive dye-labeled DUNP19. Identification of colocalization of Alexa-488 labeled DUNP19 with intracellular markers (DAPI and LAMP1) in SAOS2 cells over time was applied to further confirm time of internalization.

B1: Lutetium-177 labeled DUNP19 ([177Lu]DUNP19) (antibody, V domains shown)
VH: QVQLVQSGAEVKKPGASVKVSCKASGYTFTDYYIHWVRQAPGQGLEWMGWINPNSDGTNYAQNFLGRVTMTRDTSISTAYMELSRLRSDDSAVYHCVREGRYSTSPFDYWGQGTLVTVSS
VL: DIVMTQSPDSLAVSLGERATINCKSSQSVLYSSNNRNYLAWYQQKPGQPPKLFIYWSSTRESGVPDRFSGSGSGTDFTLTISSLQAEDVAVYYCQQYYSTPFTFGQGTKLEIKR
notes: also called 177Lu-DOTA-DUNP19
A Kd of 0.329 nM was found for B1 in this work.
